# Source: the nanobody polyreactivity screen of Harvey et al. (2022)
# Assay: yeast display, Sf9 membrane polyspecificity reagent, FACS + sequencing; frameworks hold sequencing errors
# Procedure, shortened: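 Galactose induction of a Saccharomyces cerevisiae BJ5465 synthetic nanobody display library ran 36–48 hours. The cells were then stained for 1 hour at 4 °C with 10% biotinylated, detergent-solubilized Sf9 membrane reagent, pulled down on streptavidin microbeads and FACS-sorted into low and high (top ~1%) gates on expression and reagent-binding fluorescence. Labels for polyreactivity follow the gate of origin.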
row,Sequence,polyreactivity (PSR sort gate)
1,QVQLVESGGGLFQAGGSLRLSCAASGRILDYYAMGWYRQAPGKERELVAAIRRRGVITYADSVKGRFTISRDNAKNTVYLLMKSLKPEDTAVYYCAAGGYEYGYWGQGTQVTVSS,low polyreactivity
2,QVQLVESGGGLVQAGGSLRLSCAASGFTFASNAMGWYRQAPGKERELVAGISRTGTTTYYADSVKGRFTISRDNAKNTVYLQMNSLKPEDTAVYYCAKGSNSYLRYHYTYPYDYWGQGTQVTVSS,high polyreactivity
3,QVQLVESRGGIVQAGGSLRLSCAASGFTFYFYAKGWYRQAPGKERELVAGISRGSRTNYADSVKGRFTISRDNAKNTVYLQMNSLKPEDTAVYYCAAEVSYWGLGTQVTVSS,low polyreactivity
4,QVQLVESGGGLVQAGGSLRLSCAASGLTFQYNAMGWYRQAPGKERELVAAISWSGGSTYYADSVKGRFTISRDNAKNTVYLQMNSLNPEDTAVYYCAAVYLHKSYARRMDYWGQGTQVTVSS,low polyreactivity
5,QVQLVESGGGLVQAGGSLRLSCAPSGFTFVYYAMGWYRQAPGKERELVASISGGGRTYYADSVKGRFTISRDNAKNTVYLQMNSLKPEDTAVYYCAAEQYIRPYYRWVWVSYGYWGQGSQVTVSS,high polyreactivity
6,QVQLVESGGGLVQAGGSLRLSCADSGSTFGKNAMGWYRQAPGKDRELVAAITRRGVSTNYADSEKGRFTISRDNAKNTVYLQMNSLKPEDTAVYYCARGSELGYYAWVYYLGQGTQVTVSS,high polyreactivity
7,QVQLVESGGGLVQAGGSLRLSCAASGRNFPYYAMGWYRQAPGKERELVAAISSSGGGTYYADSVKGRFTISRDNEKNTVYLQMNSLKPEDTAVYYCAAVYKVHSGLYDYWGQGTQVTLSS,high polyreactivity
8,QVQLVESGGGLVQAGGSLRLSCAASGLTFTKYAMGWYRQAPGKERELVAAINRRGGSTYYADSVKGRFTISRDNAKNTVYLQMNSLKPEDTAVYYCAKRKSVRSTPSYEYWGQGTQVTVSS,high polyreactivity
9,QVQLVESGGGLVQAGGSLRLSCAASGLIFYSYTMGWYRQAPGKERELVAVISRSGTSTYYADSVKGRFTISRDNAKNTVYLQMNSLKPEDTAVYYCAALTRSGPYAYEYWGQGTQVTVSS,high polyreactivity
10,QVQLVESGGGLVQAGGSLRLSCAASGFTIYYYTMGWYRQAHGKERELVAAITWRGGSTNYADSVKGRFTISRDNAKNTVYLQMNSLKPEDTAVYYCAAVTYWFWPGMDYWGQGTQVTVSS,low polyreactivity
11,QGQRVESGGGLVQAGGSLRLSCAASGSIFSYNTMGWYRQAPGKEREFVATIDWRDGSTYYADSVKGRFTISRDNAKNTVYLQMNSLKPEDTAVYYCATYYIVVEDNYWGQGTQVTVSS,high polyreactivity
12,QVQLVESGGGLVQAGGSLRLSCAASGRTFRYNAMGWYRQAPGKERELVAAITWGGGSTYYADSVKGRFTISRDNAKYTVYLQMNSLKPEDTAVYYCNADYIGNYQSIYQYDYWGQGTQVTVSS,low polyreactivity
13,QVQLVESGGGLVQAGGSLRLSCAASGIFVGNAMGWYRQAPGKERELVAAITGDGDSTYYADSVKGRFTISRDNAKNTVYLQMNSLKPEDNAVYYCNTVFDTIVDKYYYWGQGTQVTVSS,low polyreactivity
14,QVQLVESGGGLVQAGGSLRLSCAASGRTFTGYAMGWYRQAPGKERELVAGISRRGGSTNYADSVKGRFTISRDNSKNTVYLQMNSLKQEDPAVYYCKKRYSLWDEDYWGQGTQVTVSS,high polyreactivity
15,QVQLVESGGGLVQAGGSLRLSCAASGRIFYFNAMGWYRQAPGKERELVADISTGGRTNYADSVKGRFTISRDNAKNTVYLQMNSLNPEDTAVYYCNAEPYTSSGGYRGYDFDYWGQGTQVTVSS,low polyreactivity
16,QVQLVESGGGLVQAGGSLRLSCAASGGTFDVYTMGWYRQAPGKERELVAAIDNGGSTNYADSVKGRFTISRDNAKNTVYLQMNSLKPEDTAVYYCAADEVYLFWGIAEFIYDYWGQGTQVTVSS,low polyreactivity
17,QVQLVESGGGLVQAGCSLRLSCAASGFTFHTYAMGWYRQAPGKERELVAAITGRGGSTYYADSVKGRFTISRDNAKNTVYLQMNSLKPEDTAVYYCTAYRRGWGDRMYYWGLGTQVTVSS,high polyreactivity
